Laboratory results: publication PMC4352251, “The VieB auxiliary protein negatively regulates the VieSA signal transduction system in Vibrio cholerae” (BMC Microbiology, 2015)

What was measured:
[1] = target: VieS-C (untagged cytoplasmic portion of the sensor kinase VieS) (UniProt O68317); assay: SEC-MALS; Superose12 10/300 GL in Gel Filtration Buffer (25 mM Tris pH 7.5, 100 mM KCl, 1 mM DTT, 5% glycerol); column at 4°C, light scattering at 25°C; self-association of each protein
[2] = target: VieS-C (untagged cytoplasmic portion of the sensor kinase VieS) (UniProt O68317); assay: composition-gradient MALS (CG-MALS)
[3] = target: the molecule itself; assay: SEC-MALS; Superose12 10/300 GL in Gel Filtration Buffer (25 mM Tris pH 7.5, 100 mM KCl, 1 mM DTT, 5% glycerol); column at 4°C, light scattering at 25°C; self-association of each protein

“VieS-C (untagged cytoplasmic portion of the sensor kinase VieS) (from UniProt O68317 1-1146) (domain or fragment)” showed a stoichiometry N [1] of 2.

B1: VieB (wild type, His6 tag removed) (natural protein)
chain: MAVPTFAELKVLIIDDAPIVIASLRSMLLKLGFTDPNIVWSKSPRAAVFMAGRQRFDIFICDYNFGKGLNGKQVFEELKHYKLIKQDAVFVLVTGENSAYVVHSILELKPDEYILKPFNIMTLQERLTNAISRKHALKALYQAERDGDAELGLSLCDELEPFYNDYYFVIQKFRGEFLTQLRRFDHAREVYLETLEHKDFDWAKIGLANALKQTGRQVEATQVIQELLASAPNNVRARVEAASISLCNNSIPEAIHHLQVANQIVPGHSEREWVLANLCLSVGDGASALERYRLYVEINKETYRNNHQMHLNFIRTLLYAARQAESEQRDLWVQEAKSILKGLYDKGQHEDLLAQLELVAAHLAMEEGEFGVSVEILNKIYRAKPFELFEDRYHFTWLLNVMGFDSEFAKCISWCNGTLLNQETDIVLESKVALAKALKEANQEKLQWLEQRYHALCNKQQTIDSLLAIYIEILEKCPTLRTVCMKVVTIFSRYWPTALTESEAERLLKSCHRTIRQLMNEEELQQAQYAELYRKALTFRSRYRLQRTESVEA
B1 was tested, and the Kd [2] was 467 nM and the stoichiometry N (VieB monomer per VieS-C dimer) [2] was 1.

B2: VieA-His6 (response regulator VieA) (natural protein)
chain: MKIMIVEDDRIQATSLKLKLRQLGLDDVILAENGFAALELCNKVGIDLMFCDIRMPQMDGISLLSQLSLQAPKLGVVILSAVEDTILELTHNMCSLAGFAYVDRLPKPYEVEDLQRVVEGFQKQTEPETSHKPAITLTCDEIEQAFLHDHIFNYYQPQFDFRSGAMVGVEALVRYEHPTHGMLSPAVFLPLIEQCGLHEKLFLTVLEKSVSALASIGADLQLSVNISQRNLQHSICDPILAICERYGFPASKLTLEMTEHEVYNGTPTSLANLARLRMYGVGLSIDDFGTGYASLGQLAQLPFTELKIDRSFVHDLATNYKHQQLTNMCLLLAQSLGLHCVVEGVENEETWQYLRQLGVDTCQGYYAAKPMPIAQLSELYTKNRRQCLGCQSMDDGWQILLVDNHMLSATALQKVLNKEENVSKVFVAQDIEQTLHKLRDLPINLLVVESRFLSTISPAAFHELLEPYYRGALLVLHDGLTAEAQEDEPKAIVVKANTLMETSSRILLQAQQSNVRPQAQQEELAQLSERELTVAKMLVEGLTNKEIALQLDINQKTVSTYKTRIMTKLGIKSAMELVRFVTLK
notes: not shown: His6, C-terminal, kept
With B2 the “stoichiometry N” value [3] was 2, the Kd [2] was 1380 nM and the stoichiometry N (VieA-His6 dimer per VieS-C dimer) [2] was 1.
